T1: Human Numb full-length (human, UniProt P49757 1-651)
T1 sequence (looked up): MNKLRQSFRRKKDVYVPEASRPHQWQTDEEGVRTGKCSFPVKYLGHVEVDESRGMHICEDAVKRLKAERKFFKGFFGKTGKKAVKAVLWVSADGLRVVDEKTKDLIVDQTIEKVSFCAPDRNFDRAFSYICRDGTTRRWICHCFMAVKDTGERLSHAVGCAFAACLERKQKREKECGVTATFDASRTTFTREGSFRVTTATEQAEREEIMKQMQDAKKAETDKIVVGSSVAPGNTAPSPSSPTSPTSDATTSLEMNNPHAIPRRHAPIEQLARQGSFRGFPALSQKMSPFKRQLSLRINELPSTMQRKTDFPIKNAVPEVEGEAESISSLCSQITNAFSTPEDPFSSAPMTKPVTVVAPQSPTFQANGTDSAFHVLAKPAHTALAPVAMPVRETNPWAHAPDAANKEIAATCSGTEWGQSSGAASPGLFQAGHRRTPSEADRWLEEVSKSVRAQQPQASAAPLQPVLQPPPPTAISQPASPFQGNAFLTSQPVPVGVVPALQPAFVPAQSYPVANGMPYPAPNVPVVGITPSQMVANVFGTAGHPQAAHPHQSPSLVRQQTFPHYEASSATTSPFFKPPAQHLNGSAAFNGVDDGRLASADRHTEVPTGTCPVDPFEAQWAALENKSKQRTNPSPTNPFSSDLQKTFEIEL


Columns and labels:
Human Numb full-length = target: T1, Human Numb full-length; assay: SPR
[1] = target: Human Mdm2 (residues 119-438) (human, UniProt Q00987-11 119-438); assay: SPR
Sequence of Human Mdm2 (residues 119-438) (Q00987 113-432): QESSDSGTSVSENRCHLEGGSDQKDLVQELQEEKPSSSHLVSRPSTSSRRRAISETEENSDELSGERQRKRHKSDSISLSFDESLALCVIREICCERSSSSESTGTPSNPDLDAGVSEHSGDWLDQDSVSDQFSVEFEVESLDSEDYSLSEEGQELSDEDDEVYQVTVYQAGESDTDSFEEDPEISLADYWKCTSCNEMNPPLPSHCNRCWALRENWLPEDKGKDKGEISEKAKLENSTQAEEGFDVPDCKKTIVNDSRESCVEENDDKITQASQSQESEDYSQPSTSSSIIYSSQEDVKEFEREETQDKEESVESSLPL

Kd (Human Numb full-length) | Kd [1] | Binder
~14.3 nM | – | Human Notch1 intracellular domain (NICD) (residues 2280-2550) (domain or fragment, UniProt P46531 2280-2550, looked up) SGTSTVLGSSSGGALNFTVGGSTSLNGQCEWLSRLQSGMVPNQYNPLRGSVAPGPLSTQAPSLQHGMVGPLHSSLAASALSQMMSYQGLPSTRLATQPHLVQTQQVQPQNLQMQQQNLQPANIQQQQSLQPPPPPPQPHLGVSSAASGHLGRSFLSGEPSQADVQPLGPSSLAVHTILPQESPALPTSLPSSLVPPVTAAQFLTPPSQHSYSSPVDNTPSHQLQVPEHPFLTPSPESPDQWSSSSPHSNVSDWSEGVSSPPTSMQSQIARI
~2.4 nM | ~3.5 nM | Human Dlk2 extracellular domain (Dlk2EC, residues 1-306) (domain or fragment, UniProt Q6UY11 27-306, looked up) DDCSSHCDLAHGCCAPDGSCRCDPGWEGLHCERCVRMPGCQHGTCHQPWQCICHSGWAGKFCDKDEHICTTQSPCQNGGQCMYDGGGEYHCVCLPGFHGRDCERKAGPCEQAGSPCRNGGQCQDDQGFALNFTCRCLVGFVGARCEVNVDDCLMRPCANGATCLDGINRFSCLCPEGFAGRFCTINLDDCASRPCQRGARCRDRVHDFDCLCPSGYGGKTCELVLPVPDPPTTVDTPLGPTSAVVVPATGPAPHSAGAGLLRISVKEVVRRQEAGLGEPS
